Measurements published in the NTF2 design screens of Basanta et al. (2020).

Test: protease stability score; higher = more stable; yeast display proteolysis, trypsin and chymotrypsin;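 note: relative to predicted unfolded state with 0 unfolded-like and 1 meaning tenfold more protease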

| Sequence | protease stability score |
| --- | --- |
| DEEEKHWTTLIEIHFKDLLTGDEDSNLHLADPDYRLRMHFDGRELIFIGREEIHKFWHETVHKFKNMRIEINDSDIQGDKFDVDIAIRIDGVEIRYRLIIILFNGRTHRQEVHNI | 1.3 |
| DEEEKIAEEMFRRWVELRETGNEDDRRRLADPHTRMVINGVEYHGRDQFTKFLEHVRREWRYEDNKERDVKFQGDKIEINGREVSHFDGKTVTTDVRIEIVVVNGRLKRFNIHVH | 1.38 |
| DEEEKIARELSRLLAEIIETGDEDILLRMVDPHARFIINGKTIIGRETMWELWRRHVEKLGVSRIISRLRRIHVIDGRVHVHIEETFNGRTQEVRVDYMKIDGVWLIHEISIE | 1.35 |
| DEEEKIIEHVLRLLAEALSTGDEDTLDKLVDPNARVMIDGVDIHGMESMTEWLKHLRIERVHVELRDYREFNGKIHVDGVLHVDRRIGDKREHVSSKTTFIFTKVDGRWKVESIKIK | 2.42 |
| DEEEKILEEFLEIWIEAVATGDEEVLEHLMDPNTRVHILVGDKTLDVHGMEFFKRHIKILGADHIEWRIRHKEVINGRIHTRGELILRQGDKERRIDVEIILVVVNGRLKNSEVRER | 1.43 |
| DEEEKILHDALEELKREFETGDEELWQRLADPHTRVEVGDKEYHGREEFVKMMSDFVRHLRWEELRIRSVHAQGEKVITHIELEMNIDGRREIHNVTIIMRKINGRWHIEFMHKR | 0.926 |
| DEEEKILLHLLNVILHLLKTGDEEMMTELMDPNMKIDNENHKSHGWEALKFVRDQIRIHSINIREQRVQGEFAILRVDVDVEWNGRRIRTEIELHFVFVNGRVKEVHIQVK | 1.02 |
| DEEEKIMYHIFEVLIKLFLTGDFDTFTKMLDPNVYWNINGQENHGRDKVREALKLWIERFKNRTFDIKITDMRVQGEKTTLHTRLHVEVDGRHLEHDTVIILIVVDGRIKTIVIHIH | 2.51 |
| DEEEKISKEATDNFIREFETGNEEDLMKNMDPNARLIQGDKHNHGRDEASRFLVELLRDLGFKHIRLTHVRIIDGRVWVHSDLHFNGVEFKQDVIFTKINGKWTLKSLTIK | 1.13 |
| DEEEKIVEDAIRVWRRVLMTGDEEASRDLMDPNYKLVVGDKEYHGREEIVTYFKILVEHIRIDDFDVRHIRVQGDKIDINSEINGTIDGRHKRLEVTIHAHKFDGRWHLTEIIIH | 0.811 |
| DEEEKKAQEFLEFVMSALETGDEETLKRLMDPRVRLRFDGRDIHGREEVLRVWIEVLKRADHVRVEIRDMEFQGDKLHIHFELILHIGDKENHIEIRQNVFKVDGQWIIKEHEIR | 2.22 |
| DEEEKKFHELYKHLVKSLITGDEHELYRLADPNMRFSVGEFHYHGRENVLERLKEFIDRFRHATIRTKHMDRQGEYIHLTLKIHQGDKTHDMEIIAWKFDGRWFLHMIYIE | 0.959 |
| DEEEKKWKDMVHLWFHWHVTGDFEALYENFDPNARLEQTIDGKRIEVHGREVVKEFFHRLMEELGVDHIRIERRQIQGEKVHIRGTSIFNGKERDVHIDLVVIDGRFRSARIIFN | 1.39 |
| DEEEKLARHWMEVWHHAEHTGDFEEFNRLLDPHTRIEINFDGQRVELHGRHEYERFFRELGMEIRRIRLRDLHVVDGKWHIDGERDGEYDGKRIDSQIIIIYRVIDGRVKEIRKDDR | 0.816 |
| DEEEKLARKIVEDWVRAMTTGDEDDLRRLADPNVRHDINGVELHGMDEWLRVLLERGYEIRIQFRHIRVYDGRVEIDIDLEIRIGDKHHHHHVHLIFEKIDGRWRMKSEKTD | 1.9 |
| DEEEKLATIVMELIEETWETGDEDLFEQLADPNVRVEIGDKVYIGREIALEWFVREIRKRGAELKHTTTHNLDVQGDKVNNDMKVNGNINGRVVIFTTHLDVRKINGKWFLRSISFK | 1.29 |
| DEEEKLDREIEKTMKETIETGDEHLLSELIDPHARLVFNGKDFHGMEEATRFWYELVTRFKNLTFVPKDVKVFDGRLIMHGINLVNGVERRLTIVVEKINGRWVIRSIHIK | 1 |
| DEEEKLEEDLARFWVTLLKTGDEEVIRHLADPHVREDWDGVHIHGREHVAKYLSQIKNVTWEIKEVRIYNGRTEIDARHHVNGRDEHVRIHIEVFNGKVRRLRFEKR | 1.5 |
| DEEEKLFHDFASHFVRNFLTGNWDMIKRNADPTVQAHIGDKEIHGWDRIVDHLEERLRKIKGMRHHPRRLVFIGEKTYLDTELHFNGVHVETILIVIVVNGRLKSVEFHIE | 0.695 |
| DEEEKLIRIFDKLLSRAMKTGDEHELFKLIDPHTRMVVNGRTFIGWELFSHVVRHWRIDHIDLEDFKVQGDYAHLDGRVDQTVNGVKIETRSIIINEKFNGRWNNSSVILH | 0.163 |
| DEEEKLLEFLVEHIATILVTGDEDRWLTLADPDVKVIIDGRTFIGWEFLEELIHQIRIHRMRIRHFSFVNGRLVFIFSIDGTIGDKRDEHDTRYEMIKIDGRWRLKRVEIR | 1.48 |
| DEEEKLLEKMFKDLIRDLLTGDEESFHKLADPNMRLNQGDFQIHGWEDVQRVLRWRMHEMRIHHLHIHHLHFFDGKLHIDGESDIEFNGVRQNRRVEILIKKVDGKWELKEVIIR | 2.28 |
| DEEEKLLEQLARLILHNLLTGDWKSHMNNADPDVKVTVNGVLVHGREDMSHLYRELLERIPNIQIRVDRVDIQGDKVHARLWVEFDGKERQSELHVRIVNGRIKEETYHEK | 0.937 |
| DEEEKLMKHRWEEWVRFLKTGDFDEIHDYMDPNVRLFIGDKTFHGRDVFARLVYRMGAKHVEFDLHDEHLINGKLIFHGRVVHTQGDKFIEFEVEIIAEKVNGKWLNRHQIFR | 0.456 |
| DEEEKLRQWIFHLWIKILETGDEKLLEELADPHVLHRFDGVHAHGRERMSSWLRELIERLGVKVHELNSIHIYGDKARINFQVHVDGQRKEMTIHMLMVDGKIKSTQLDRREH | 1.09 |

| Sequence | protease stability score |
| --- | --- |
| DEEEKLSQHMLKEWFEWTITGDEDTLAKMADPNVRVHIGDYHLHGRESMLKWLHDFIRDLGVERIDFHLRDRTVQGNKARLHVVENVNGKSTETEVIIDVIDGRMKLVEIRIR | 0.198 |
| DEEEKLVEEALREFLRDLMTGDEDSLLRQIDPNARHVYNGQEFHGRKWFEEMHKRMGMELKRIEIKDSDIVNGRAISHVEVHSRIGDKRLRIETEIVTLKVNGQWLVKSLSLI | 1.15 |
| DEEEKLVRYLRELMKKAWLTGDEDYIRKLMDPDTWFIYGDKHWHGMEEVTKAFEYLLHHLRIEHSIDRHVSIIGNKVHIDGEVDVTIGEKRDRRRQEIILIIVDGRIKTIEFHER | 0.942 |
| DEEEKLWHEVARLEFELIHTGNEETWNKLADPHTRTDINGKKLHGREDFAKWSLEFLRKVKGMTMELRSTHIQGNKIRLIIRLIVDGREVKLDLEIVIINGKLREVKMEVEDT | 2.56 |
| DEEEKMDELLIKIWLKVNETGDEDTFSKLLDPDAKVIVGDKVLHGREEIEELMRQLRVDRIHVRRHKAVNGQIHQDWELRGTVNGREIRTETRVHTIKVNGQWVIHRLKIE | 1.49 |
| DEEEKMHTKAVELTETILKTGDERIIKEMADPNTRVIFDGVDLHGMEHWTEFWRRLGFKHIEIRTTEVVDGRVIIIQHVRYNGKKHESHVYADKIDGRWLYTHVEIR | 0.618 |
| DEEEKRAHEIVRRFLKWFLTGDEEASRKNMDPSVIMVINIGDKRIELHGMEQVSEFWHETVRRYDHIDIKLKDIEVQGDKAVTHGHLELRVGDKRFETDVQIILIYIDGRISFMSVNIV | 2.48 |
| DEEEKRAREQYKLMFHNLQTGDEDTLKKLMDPNVRLDINGQEHHGRENVVKFWEHFIRKLGVKHMEWKDRDVEITENHVNFHGYIIIDIDGQERRLHTIIILRKVDGKWVVESLVFK | 2.23 |
| DEEEKRERKMAEIWMKSLLTGDEDTLSRLADPNVRNVLIIDGRELNLHGRELMHESLRHLRIEHIRIDEYSIVNGVFHANTTVHGVVGDKRTTVETRIHLWIFDGKFHTIIIIIS | 1.03 |
| DEEEKRIEEIARLIFKLWHTGDEEHFLRLADPHVRLNVDGRELHGRERVKHWLHELRHRVDHITDYKEKHKENQGEFFVQWGVLDVHVDGKNVRTRVRIEIVVIDGKINEVRIEVH | 1.36 |
| DEEEKRVIHIINLVEHALETGDEDLYKNLLDPDPIYNINGRILHGREFWLEFLHHMRESIEISHWHDVRSQGDKVTVHAKTTFLIRIGDKVDRVETEVRIIIVKINGRWLLHEIHHH | 0.849 |
| DEEEKRWRHMTHLFWHIEKTGNEDRLSKLADPDVRLNINGVHAHGREEVISVLREFQERYKNLTIHIKDIKVFDGVVFIDGEDHFDGVTVKSLVIIFIVNGRIKEIEHRRE | 1.62 |
| DEEEKSLREMMRQFVEHLETGNFEEIEKMADPNARVRIDGRDFVGREEWHKMFIHLHKHLRLEDSHIHHIDFQGNKIHIHGHIHVVVDGKREHRHFHVIIRKVNGRWTIEEMYIE | 1.06 |
| DEEEKSLRFAIKMMEELIQTGDEDLFERLLDPDTRLRVGDKTFHGREQVLKWFEEWLKRMGADHVELRLHDMRVVGDKLDLDVEYRQYVGDKDIHDRRHLIIIKVNGRWYFKEVRIL | 1.67 |
| DEEEKTFEQIVRHLIDDLVTGDWEKLRDYFDPHVRVEIGDKRIVGRETLVDELSHWRVKHVRVELHDYRVINGRIEVHGSVDFRGNIDGRELRHSYETKIIFDKINGRWTLQSHHVL | 1.21 |
| DEEEKVEDDMLHRWLQYFLTGDEEHLLELADPRVRVRINGKDDHGMNAVERFWEEYRRKFKNVRIHIHDMRYYDGVIHVDGILQINGKTLKIEFIIVIVNGRIRFITENIR | 1.73 |
| DEEEKVIKDVVDMLRKALRTGDEERIRELADPDVRIEQGDKELHGRELWLEWLKEIRTERVILHVRRVRHFNGKIINEIEVRMDVRVGEFRHESTVSTILIMEKFNGRWHIRSMIIE | 1.5 |
| DEEEKVSRLAWELLFKTWKTGDEHEFHHMFDPDVRVDFNGRHLHGREAEEILFKQVDHIEDLHLRHIHMIDGKIQIEEDVVGHFNGQRTNVHVRFVAKKIDGRWRNKMVIVR | 1.2 |
| DEEEKVVFELLRLFITAWETGDEDVLLRLADPNVRMTIGDKHYHGMEHFSHVYLLIFEELRITVKVHDIRIIGDKAYVDVEERRHQGDKSWKYRTHYEFEKIDGRWKLRRVEVK | 2.54 |
| DEEEKWFRESEKLIEELIHTGNEEEFRKLADPNMRLDFNGVEVHGRHHFFREIRHTSEKFGVDKVEVRLKDFKVFNGVAHYHGEIIFNGRTIEHEIIAEKVNGRWRLQFLIFR | 1.61 |
| DEEEKWIRHILELVLRAEKTGDEDRLSELMDPDVKLDIDGRDLHGREKVKEWIEELKHKFKNLRIIDRDIRIYGEKHNVHGELHFNGQTHSAIIILRIVDGRIKEIFVIHV | 1.32 |
| DEEEKWMRNLTEWLLKSLTTGDFESFNRMFDPRTRMHVDGREFHGREEVERYLREFDDKLGADHRESDLEHIEVQGNKARFHTTLKFDIGDKHLRIDTHLVIVKINGQWRIRHVEVR | 0.839 |
| DEEEKYIKSLAKLISHAISTGDFELFHKLVDPDVRLIVDGVDLHGWELATKWIEEIRVEDHEVRVKEVRFVDGRANSDGEVILDGEYNGREKRVERKTILVSLKVDGRWTVKSLEIK | 0.882 |
| DEEEKYSKEANTMSRHLVETGDEEIMSKLLDPDVRNDVDGVEFHGRELLSRILKEWRVRFESMHIEDEELQGDKVIVHGRELVRMIYDGKTFNTERKVIFIVVKINGRWFIKEVKVL | 0.751 |
| DEEEKYVEDIAREFLHAMRTGDEEWNKELADPHVRMHLHQGDYILNLHGRDLFTRVIRYLVDQWRLEIRIENFDSIGNKIEVHGTIILKQGDKSIKRKSIIHIDVVNGRLKEVHIHLQ | 0.152 |
